# Source: the nanobody polyreactivity screen of Harvey et al. (2022)
# Assay: yeast display, Sf9 membrane polyspecificity reagent, FACS + sequencing; frameworks hold sequencing errors
# How it was run: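 Nanobodies came from a synthetic yeast display library in Saccharomyces cerevisiae BJ5465, induced with galactose for 36–48 hours and stained for 1 hour at 4 °C with 10% biotinylated, detergent-solubilized Sf9 membrane reagent. Cells were enriched on streptavidin microbeads and then FACS-sorted, with low and high (top ~1%) gates set on anti-HA fluorescence for expression and streptavidin fluorescence for reagent binding. Each polyreactivity label reflects the gate a clone came from. Genes were amplified by colony PCR, sequenced by MiSeq 2 × 250 and filtered by CDR length.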
row,Sequence,polyreactivity (PSR sort gate)
1,QVQLVESGGGLVQAGGSLRLSCAASGSIFEPYTMGWYRQAPGKERELVAAITGSGGSTFYADSVKGRFTISRDNAKNTVYLQMNSLKPEDTAVYYCNAYAYPYTDVDYWGQGTQVTVSS,low polyreactivity
2,QVQLVESGGGLVQAGGSLRLTCAASGSIFRYYAMGWYRQAPGKERELVATISSGGRTYYADSVKGRFTISRDNAKNTVYLQMNSLKPEDTAVYYCAAVRLTWTAKYNYWGQGTQVTVSS,high polyreactivity
3,QVQLVESGGGLVQAGGSLRLTCAASGSTFRENAMGWNRQAPGKERELVAAITSGGSTYYADSVKGRFTISRDNAKNTVYLQMNSLKPEDTAVYYGNADLEPYDYWGQGTQVTVSS,low polyreactivity
4,QVQLQESGGGLVQPGGSLRLSCAASGYISSWYPMGWYPQAPGKEREFVATIAPGATTYYADSVKGRFTISRDYANNTVYLQMNSLKPEDTAVYYLAAGPENKDFYSYWCQGTQVTVSS,low polyreactivity
5,QVQLVESGGGLVQAGGSLRLSCAASGSTFLYYTMGWYRPAPGKERELVAAITSGGDTNYPDSVKGRFTISRDNAKNTVYLQMNSLKPEDTAVYYCNAEYTLSGTKIYTYKYDYRGQGTQVTVSS,low polyreactivity
6,QVQLVESGGGIVQAGGSLRLSCAASGSTFESNAMGSYRQAPGKERELVAAISRGGNTYYADSVKGRFTISRDNAKNTVYLQMNSLKPEDTAVYYCNVDRGNPVQPSEYWGQGTQVTVSS,low polyreactivity
7,QVQLVESGGGLVQAGGSLRLSCAASGSIFPANAMGWYRQAPGKERELVAGISERGSSTYYADSVKGRFTISRDNAKNTDYLQMNSLKPEDTAVYYCAADDVGRYWSYTHNWARGDYWGQGTQVTVSS,low polyreactivity
8,QVQLVESGGGLVQAGGSLRLICAASGYIFRPNAMGWYRQAPGKERELVASISSGGSTYYADSVKGRFTISRDNAKNTVYLQMNSLKPEDTAVYYCNARHYPWFAAYGSYAYEYWGQGTQVTVSS,low polyreactivity
9,QVQLVESGGGLVQAGGSLRLSCAASGSTFYNYAMGWYRQAPGKERELVAAITSSGGSTYYADSVKGRFTISRDNAKNTVYLQMNSLKPEDTAVYYCAATRRDRRKSFTYRYDYWGQGTQVTVSS,high polyreactivity
10,QVQLVESGGGLVQAGGSLRLSCAASGYTFDGYAMGWYRQAPGKERELVAAINSGGGTYYADSVKGRFTISRDNAKNTVYLQMNSLKPEDTAVYYCAKYTYDYWGQGTQVTVSS,low polyreactivity
11,QGQLVESGGGLVQAGGSLRLSCAASGFTFNYYAMGWSRQAPGKERELVAAISWRGGSTSYADSVKGRFTISRDNAKNTVYLQMNSLKPEDTAVYYCNAGYSGIYYFAGDYWGQGTQVTVSS,high polyreactivity
12,QAQLVESGGGLVQAGGSLRLSCAASGSIMYYAMGWYRHAPWKERELVATITRGGSTYYADSVKGRFTISRDNAKNTVYLQMNSLKPEDTAVYYCAKQFLPSGVYYEYDSWGQGTQVTVSS,low polyreactivity
13,QVQLVESGGGLVQAGGSLRLSCAASGRIFSRNAMGWYRQAPGKERELVAAISGSGTSTYYAVSVKGRFTISRDNAKNTVYLQMNSLKPEDTAVSYCAADYPAVISIRRYDYWGQGTQVTVSS,low polyreactivity
14,QVQLVESGGGLVQAGGSLRLSCAASGRTFRGNAMGWYRQAPGKERELVAAISRSGGTTYYADSVKGRFTISRDNAKNTVYLQMNSLKPEDTAVYYCNRGWATWHGPDDYWGQGTQVTVSS,high polyreactivity
15,QVQLVESGGGLVQAGGSLRLSCAASGRTFWYYAMGWYRQSPGKERELVAVITSGSSTYYADSVKGRFTISRDNAKNTDYLQMTSLKPEDTAVYYCAVGRTYRRYSAASYNYWGQGTQVTVSS,high polyreactivity
16,QVQLVESGGGIVQAGGSLRLTCAASGRILGSNSIAWYRHAPGKERELVAAITSTGSTDYADSVKGRFTISRDNAKKTVYLQMNSLKPEDTAVYYCAADTSPYQDDYWGQGTQVTVSS,low polyreactivity
17,QVQLVESGGGLVQAGGSLRLSCAASGSTFYPYDMGLYRQAPGKERELVATITSTGGSTNYADSVKGRFTISRDNAQNTVYLQMNSLKPEDTAVYYCAKDWNDDQHSWDTPFDYWGQGTHVTVSS,low polyreactivity
18,QVQLVESGGGLVQAGGSLRLSCASSGSIFQYNAMGWYRQAPGKERELVAAINGGGSTYYADSVRGRFTISRDNAKNTVYLQMNSLKPEDTAVYYCAARHGESHYDYWGQGTQVTVSS,low polyreactivity
19,QVQLVESGGVLVQAGGSLRLSCAASGSIFKLNAMGWYRQAPGKERELVAVINKSGGRTFYADSVKGRFTISRDNAKNTVYLQMNRLKPEDTAVYYCNAVSNLAVNLDYWGQGTQVTVSS,high polyreactivity
20,QVQLVESGGGLVQAGGSLRLSCAASGSTFLYYAMGWYRQAPGKERELVAAIRVGGGRTYYADSVKGRFTISRDNAKNTVYLQMNSLKPEDTAVYYCAAKRRHRVPFDYWGQGTQVTVSS,high polyreactivity
21,QVQLVESGGGLVQAGGSLRLSCAASGRTFDSYTMGWYRQAPGKERELVADITFTGGSTYYADSVKGRFTISRDNAKNTVYLQMNSLKPDDTAVYYCNADREYKWYFRYDYWGQGTQVTVSS,low polyreactivity
22,QDQLVESGGGLVQAGGSLRLSCSASGSTFIRNSKGWYRQATGKERELVAAITTDGSTDYADSVKGRFTISRDNAKNTVYLQMNSLKPEDTAVYYCNAEYRLDALSYDYWGQGTQVTVSS,low polyreactivity

row,Sequence,polyreactivity (PSR sort gate)
1,QVQLVESGGGLVQAGGSLRLICAASRFTYYRNVMGWYRQAPGKERELVAPISRRGDRTYADSVKGRFTISRDNAKNTVYLQMNSLKPEDTAVYYFAPTPYSYWTRYYYWGQGTQVTVTS,high polyreactivity
2,QVQLVESGGGLVQAGGSLRLSCAASGSIFRTYAMGWYRQSPGKERELVAAITSDGSTYYADSVKGRFTISRDNAKNTVYLKMNRLKPEDTAVYYFAAASQEYDYHYYYWGQGTQVTVSS,low polyreactivity
3,QVQLVESGGGLVQAGGSLRLSCAASGRIFGPYTMGWYRQAPGKEREFVAAITRRGGSTYYADSVKGRFTISRDNAKNTVYLQMNSLKPEDTAVYYCAAVGQKRSLGYSWGQGTQVTVSS,low polyreactivity
4,QVQLVESGGGLVQAGGSLRLSCAASGITFRWNAMGWYRQAPGKERELVAAITTRGGGTYYADSVKGRFTISRDNAKNTVYLQMNSLKPEDTAVYYCGAKKSRYPYNYWGQGTQVTVSS,high polyreactivity
5,QVQLVESGGGLVQAGGSLRLSFAASGSTFKFNAMGWYRQAPGKERELVATITSRGSRTYYADSVKGRFTISRDNAKNTVYLQMNSLKPEDTAVYYCAKVSKRVGFPTAMNYWGQGTQVTVSS,high polyreactivity
6,QVQLVESGGGLVQAGGSLRLSCAASGSIIWRNAMGWYSQAPGKERELVAAISYSGGSTYYADSVKGRFTISRDNAKNTVDLQMNSLKPEDTAVYYCAADYTEVLEYDYWGQGTQVTVSS,low polyreactivity
7,QVQLVESGGGLVQAGGSLRLSCAASGFTFSAYTMGWYRKAPGKERELVAAISWGGGSTFYADSVKGRFTISRDNAKNTVYLQMNSLKPEDTAVYYCNKQYVHPYDYWGQGTQVTLSS,high polyreactivity
8,QVQLVESGGGLVQAGGSLRLSCAASGFTYDLNAMGWYRQAPGKEREFVATISQSTGSTYYADSVKGRFTISRDNAKNTVYLQMNSLKPEDTAVYYCNKDRPYTLTWGLYEYWGQGTQVTVSS,low polyreactivity
9,QVQLVESGGGLVQAGGSLRISCAASGSTSSRNAMGWYRQAPGKERELVAAITSGTRTYYADSVKGRFTISRDNAKNSVYLQRNSLKPEDTAVYYCARGRVSRYTKTDYDYWGQGSQVTVSS,high polyreactivity
10,QVQLVESGGGLVQAGGSLRLSCAASGLIFYDNMGWYIQAPGKEREMVAAISSSGGSTSYADSVKGRFTISRDNAKNTVYLQMNSLKPEDTAVYYCAADSYPAYLGFVGFDYWGQGTQVTVSS,low polyreactivity
11,QVQLVESGRGLVQEGGSLRLSCAASGFTFYGYAMGWYRQAPGKERELVAAINSGGRTYYADSVKGRFTISRDNAKNSVYLQMNSLKPEDTAVYYCAAVSLYTSDYYWGQGTQVTVSS,high polyreactivity
12,QVQLVESGGGLVQAGGRLRLSCAASGRIYRRNTMGWYRQAPGKERELVAAITSSGGSTYADSVKGRFTISRDNAKNTVYLQMNSLKPEDTAVYYCATYVAYHRGYRTYDHWGQGTQVTVSS,low polyreactivity
13,QVQLVESGGGLVQAGGSLRLSCAASGSIFGYNAMGWYRQAPGKERELVADISSGDSTNYADSVKGRFTISRDNAKNTVYLQMNSLKPEDTAVYYCAADFTYQGSSANDYWGQGTQVTVSS,low polyreactivity
14,QVQLVESGVGIVQARGSLRLSCAASGYTFYRYTMGWYRQSRGNERELVAAINSGGSTNYADSVKGRFTISRDNAKNTVYLQMNSLKPEDTAVYYCAAGDGPWLPRVHYGGYGYWGQGTQVTVSS,high polyreactivity
15,QVQLVESGAGLVQAGGSLRLSWAPSGITFLYYAMGLYRQAPGTEMELVATISISGGSTYYADSVKGRFTISRDNAKYTVYLQMTSLQPEESAVYYCAADDSVVTYSYDTWLVDYDYWGQATQVTVSS,low polyreactivity
16,QVQLVESGGGLVQAGGSLRLSCAASGRTFKPNTMGWYRQAPGKERELVAAITSSGGSTYYADSVKGRFTISRDNAKNTVYLQMNSLKPEDTAVYYCAARGGAPYRIFKDDYWGQGTQVTVSS,high polyreactivity
17,QVQLVESGGGLVQAGGSLRLSFAASGSNFAVKAMGLNTPAPGKERELVATITRRDGSTYYADSVKGRFTISRDNAKYTVYLQLNSLKPEDTAVYYCNARLKRTYDYWGQGTQVTVSS,high polyreactivity
18,QVQQQESGGGLVQAGGSLRLSCAASGNTSDTGYMGWYRQAPGKERKVVASIDYGSNTYYADSVKVRFTISRDNAKNTVYLQMNSLKPEDTAVYYCAAYYIGDYTLVYWGQGTQVTVSS,high polyreactivity
19,QVQLVESGGGLDQAGGSLRLSCAASGLIFIQNAMGWYRQAPGKEREFVAAISVSGRTYYADSVKGRFTISRDNAKNTVYLQMNSLKPEDTAVYYCAARSRSWRQRYGDFDYWGQGTQVTVSS,low polyreactivity
20,QVQLVESGGGLVQAGGSLRLSCAASGRIVYVNVMGWYRQAPGKERELVAAINWSDGSTYYADSVKGRFTISRDNAKNTVYLQMNSLKPEETAVYYFNRRGPYGYKAWAIGTIGDLDYWGHGTQVTVSS,low polyreactivity
21,QVQLVESGGGLVQAGGSLRLSCAASGFTFGSNAMGWYRQAPGKERELVAAISWSGGRTYYADSVKGRFTISRDNAKNTVYLQMNSLKPEDTAVYYCNKQYVKPWYRGYYYWGQGTQVTVSS,high polyreactivity
